Test results: patent US20210032312A1 (Janssen / Centocor, published 2021)

Columns and labels:
In house human CD8A-Fc = biological target: T1, In house human CD8A-Fc (human, UniProt P01732 22-182, limits assumed); assay: SPR (ProteOn), captured hCD8A-Fc
T1 construct: Captured on goat anti-human Fc on a ProteOn GLC chip; also called hCD8A-Fc; recombinant human CD8 alpha; not shown: linker with flag (and polyhistidine) tag and Fc of human IgG1

[1] = biological target: T2, cynomolgus monkey CD8A on primary cynomolgus monkey CD8+ T cells (cynomolgus monkey, UniProt P01732 23-235 (human entry)); assay: flow cytometry, cyno CD8+ T cells, 0.2 uM FN3
T2 construct: also called Cyno CD8alpha
T2 sequence (P01732 other isoform, or with tags, fused parts or gaps limits assumed): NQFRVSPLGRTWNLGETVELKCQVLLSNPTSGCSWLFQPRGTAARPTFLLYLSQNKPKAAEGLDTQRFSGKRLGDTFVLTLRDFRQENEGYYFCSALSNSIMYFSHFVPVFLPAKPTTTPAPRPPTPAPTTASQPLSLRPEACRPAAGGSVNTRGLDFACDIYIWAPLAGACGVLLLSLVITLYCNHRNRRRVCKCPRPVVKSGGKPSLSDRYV

[2] = biological target: T3, human CD8 alpha (CD8A) on primary human CD8+ T cells (human, UniProt P01732 22-235); assay: flow cytometry, human CD8+ T cells, 0.2 uM FN3
T3 construct: whole, on cells; also called hCD8A
T3 sequence (P01732 22-235): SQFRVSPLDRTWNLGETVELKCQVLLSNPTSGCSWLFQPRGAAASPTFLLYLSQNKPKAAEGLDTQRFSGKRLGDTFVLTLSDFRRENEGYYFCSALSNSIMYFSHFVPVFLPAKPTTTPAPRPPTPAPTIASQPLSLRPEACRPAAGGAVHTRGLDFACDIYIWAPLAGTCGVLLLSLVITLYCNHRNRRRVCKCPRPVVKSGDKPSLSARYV

[3] = biological target: T2, cynomolgus monkey CD8A on primary …; assay: flow cytometry, cyno CD8+ T cells, 2 uM FN3
[4] = biological target: T3, human CD8 alpha (CD8A) on primary human …; assay: flow cytometry, human CD8+ T cells, 2 uM FN3

T1 sequence (P01732 22-182 limits assumed): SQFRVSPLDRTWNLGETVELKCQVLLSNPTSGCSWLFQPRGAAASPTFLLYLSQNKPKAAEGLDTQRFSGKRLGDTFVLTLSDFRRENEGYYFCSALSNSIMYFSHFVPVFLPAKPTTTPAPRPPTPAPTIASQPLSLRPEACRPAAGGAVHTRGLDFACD

Row | koff (In house human CD8A-Fc) [s⁻¹] | Cyno T-cell Binding 0.2 uM (MFI) [1] [MFI] | Human T-cell Binding 0.2 uM (MFI) [2] [MFI] | Cyno T-cell Binding 2 uM (MFI) [3] [MFI] | Human T-cell Binding 2 uM (MFI) [4] [MFI] | Binder
1 | 0.00577 | 637 | 698 | 11800 | 5730 | P282FR9P1361_H5 (designed binder, FN3 domain) LPAPKNLVVSRVTEDSARLSWTAPDAAFDSFDIWYAEYGYPGEAIVLTVPGSERSYDLTGLKPGTEYDVAISGVKGGPRSYPLSAIFTT
2 | 0.00502 | 764 | 1030 | 14800 | 6880 | P282FR9P1361_D3 (designed binder, FN3 domain) LPAPKNLVVSRVTEDSARLSWTAPDAAFDSFDIWYAEYGYPGEAIVLTVPGSERSYDLTGLNPGTEYDVAISGVKGGPRSYPLSAIFTT
3 | 0.00126 | 1390 | 801 | 9870 | 5500 | P282FR9P1361_F1 (designed binder, FN3 domain) LPAPKNLVVSRVTEDSARLSWTAPDAAFDSFGIWYAEYGYSGEAIVLTVPGSERSYDLTGLKPGTEYDVAIWGVKGGVRSYPLSAIFTT
4 | 0.00213 | 384 | 382 | 2290 | 2190 | P282FR9P1361_F11 (designed binder, FN3 domain) LPAPKNLVVSRVTEDSARLSWTAPDAAFDSFGIWYREYGGSGEAIVLTVPGSERSYDLTGLKPGTEYDVAIWGVKGGVRSYPLSAIFTT
5 | 0.00496 | 462 | 498 | 10900 | 4610 | P282FR9P1361_F2 (designed binder, FN3 domain) LPAPKNLVVSRVTEDSARLSWTAPDAAFDSFDIWYAEYGYPGEAIVLTVPGSERSYDLTGLKPGTEYDVAISGIKGGPRSYPLSAIFTT
6 | 0.000317 | 2500 | 3740 | 26300 | 13100 | P282FR9P1361_H4 (designed binder, FN3 domain) LPAPKNLVVSRVTEDSARLSWTAPDAAFDSFGIWYAEYGYSGEAIVLTVPGSERSYDLTGLKPGTEYDVAIYGVKGGSPSYPLSAIFTT
7 | 0.00224 | 896 | 1580 | 11600 | 8540 | P282FR9P1361_C7 (designed binder, FN3 domain) LPAPKNLVVSRVTEDSARLSWTAPDAAFDSFGIWYHEYGGDGEAIVLTVPGSERSYDLTGLKPGTEYDVAIWGVKGGDVSYPLSAIFTT
8 | 0.0107 | 513 | 674 | 9710 | 5160 | P282FR9P1361_F3 (designed binder, FN3 domain) LPAPKNLVVSRVTEDSARLSWTAPDAAFDSFDIWYAEYGYPGEAIVLTVPGSERSYDLTGLKPGTEYDVAISGAKGGPRSYPLSAIFTT
9 | 0.000757 | 740 | 1660 | 8480 | 7670 | P282FR9P1361_A3 (designed binder, FN3 domain) LPAPKNLVVSRVTEDSARLSWTAPDAAFDSFDIWYAEYGYPGEAIVLTVPGSERSYDLTGLKPGTEYDVAIVGVKGGNRSYPLSAIFTT
10 | 0.000269 | 4540 | 3480 | 44600 | 15200 | P282ER9P1360_H2 (designed binder, FN3 domain) LPAPKNLVVSRVTEDSARLSWTAPDAAFDSFSIAYVEAELVGEAIQLVVPGSERSYDLTGLKPGTEYWVVILGVKGGNPSNPLGASFTTT
11 | 0.000225 | 4410 | 3860 | 48700 | 22400 | P282ER9P1360_F11 (designed binder, FN3 domain) LPAPKNLVVSRVTEDSARLSWIAPDAAFDSFSIAYVEAELVGEAIQLVVPGSERSYDLTGLKPGTEYWVVILGVKGGNPSNPLGASFTT
12 | 0.000242 | 6440 | 4270 | 66000 | 20000 | P282ER9P1360_H3 (designed binder, FN3 domain) LPAPKNLVVSRVTEDSARLSWTAPDAAFDSFSIAYVEAELVGEAIQLVVPGSERSYDLTGLKPGTEYWVVILGVKGGNPSNPLGASFTT
13 | 0.00449 | 500 | 278 | 2250 | 919 | P282DR9P1359_H5 (designed binder, FN3 domain) LPAPKNLVVSRVTEDSARLSWTAPDAAFDSFNIAYPEALHPGYGEAIVLTVPGSERSYDLTGLKPGTEYFVVIYGVKGGTNSEPLSAIFTT
14 | 0.00207 | 22600 | 7050 | 62700 | 27000 | P282ER9P1360_G10 (designed binder, FN3 domain) LPAPKNLVVSRVTEDSARLSWTAPDAAFDSFAIWYVEQHPFGEAIPLFVPGSERSYDLTGLKPGTEYTVGIRGVKGGNFSTPLIAHFTT
15 | 0.00104 | 1890 | 506 | 27100 | 2510 | P282ER9P1360_H10 (designed binder, FN3 domain) LPAPKNLVVSRVTEDSARLSWTAPDAAFDSFEIYYPEWPFAGEAIGLPVPGSERSYDLTGLKPGTEYFVVIYGVKGGELSEPLTAQFTT
16 | 0.000192 | 8110 | 5210 | 63500 | 32800 | P282FR9P1361_A5 (designed binder, FN3 domain) LPAPKNLVVSRVTEDSARLSWTAPDAAFDSFGILYYEPVDSGEAITLPVPGSERSYDLTGLKPGTEYWVVITGVKGGAPSTPLGAIFTT
17 | 0.000156 | 10200 | 6010 | 66800 | 30600 | P282ER9P1360_C8 (designed binder, FN3 domain) LPAPKNLVVSRVTEDSARLSWTAPDAAFDSFGILYYEPVDSGEAITLPVPGSERSYDLTGLKPGTEYWVVITGVKGGAPSTPLGTIFTT
18 | 0.000181 | 9680 | 6290 | 64800 | 25900 | P282ER9P1360_C1 (designed binder, FN3 domain) LPAPKNLVVSRVTEDSARLSWTTPDAAFDSFGILYYEPVDSGEAITLPVPGSERSYDLTGLKPGTEYWVVITGVKGGAPSTPLGAIFTT
19 | 0.000175 | 7580 | 5080 | 52800 | 25900 | P282ER9P1360_C6 (designed binder, FN3 domain) LSAPKNLVVSRVTEDSARLSWTAPDAAFDSFGILYYEPVDSGEAITLPIPGSERSYDLTGLKPGTEYWVVITGVKGGAPSTPLGAIFTT
20 | 0.000191 | 6870 | 5030 | 60800 | 26900 | P282ER9P1360_E4 (designed binder, FN3 domain) LPAPKNLVVSRVTEDSARLSWTAPDAAFDSFGILYYEPVDSGEAITLPVLGSERSYDLTGLKPGTEYWVVITGVKGGAPSTPLGAIFTT
21 | 0.000221 | 9920 | 5870 | 69700 | 25400 | P282ER9P1360_G7 (designed binder, FN3 domain) LPAPKNLVVSRVTEDSARLSWTAPDAAFDSFGILYYEPVDSGEAITLPVPGSERSYDLTGLKPGTEYWVVITGVKGGAPSTPLGAILTT
22 | 0.000133 | 8730 | 5340 | 64700 | 23400 | P282ER9P1360_A9 (designed binder, FN3 domain) LPAPKNLVVSRVTEDSARLSWTAPDAAFDSFGILYYEPVDSGEAITLPIPGSERSYDLTGLKPGTEYWVVITGVKGGAPSTPLGAIFTT
23 | 0.00107 | 3900 | 3460 | 33400 | 19200 | P282ER9P1360_C4 (designed binder, FN3 domain) LPAPKNLVVSRVTEDSARLSWTAPDAAFDSFGITYYEPNHGGEAISLSVPGSERSYDPTGLKPGTEYWVVITGVKGGAPSTPLGAIFTT
24 | 0.000142 | 1940 | 3210 | 76600 | 36800 | P282ER9P1360_D11 (designed binder, FN3 domain) LPAPKNLVVSRVTEDSARLSWTAPDAAFDSFGILYYEPVDSGEAITLPVPGSERSYDLTGLKPGTEYFVIIVGVKGGYPSIPLGAAFTT
